49 molecules from paper PMC3708871 can be followed below.

T1: Recombinant SIVmac239 Nef core domain, residues 96–237
T1 chain: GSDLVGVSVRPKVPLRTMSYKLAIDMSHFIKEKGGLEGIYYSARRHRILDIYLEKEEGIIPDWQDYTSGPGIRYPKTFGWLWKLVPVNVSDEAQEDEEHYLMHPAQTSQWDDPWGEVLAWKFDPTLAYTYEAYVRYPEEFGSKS

For the first assay, the target named is T1, Recombinant SIVmac239 Nef core domain, …. Description: SPR. The settings on record: chain shown with the change; Nef96–237 at about 650 µM (highest concentration point), peptide on chip; parent: est. 1900; read off a plot.
For MAPILYDYRKMPMAAAAAEDGDKRCK, the response amounted to 1100 RU.

The same assay, now with this note: chain shown with the change; Nef96–237 at about 650 µM (highest concentration point), peptide on chip; read off a plot.
In the case of MASTSYDYSRVPMDDIWKEDGDKRCK, the response amounted to 800 RU.

The next assay addresses Rhesus macaque tetherin (BST-2), allele rBST-2.1. Briefly: co-immunoprecipitation. Particulars: 293T cells co-transfected; lysates immunoprecipitated with a monoclonal antibody to tetherin; parent: 1.
In the case of “SIVmac239 Nef, wild type M66A; N67A; T68A; P69A; W70A; R71A”, the ratio to parent came to 0.05.

As for “SIVmac239 Nef, wild type M66A; N67A; T68A; P69A; W70A; R71A; I117A; L174A; W175A; N181A; V182A”, the ratio to parent is 0.07.

The target in the next assay is SIVmac239 Nef, wild type. Briefly: co-immunoprecipitation. Particulars: IP: α-BST2; parent: 0.13.
For the molecule “Human tetherin (BST-2) (from UniProt Q10589) insertion of D14DIWK18 from rhesus tetherin into human tetherin (hDDIWK)”, the other: Nef/BST2 band intensity ratio was 0.65.

The next assay has as its target Dynamin 2 fused to GFP (UniProt P50570). Description: co-IP; 293T co-transfected with Nef constructs and Dyn2-GFP; lysates immunoprecipitated with a mAb to GFP, blots for Nef and GFP; band ratios.
Chain of UniProt P50570 (P50570 whole entry, the tested form may be a part): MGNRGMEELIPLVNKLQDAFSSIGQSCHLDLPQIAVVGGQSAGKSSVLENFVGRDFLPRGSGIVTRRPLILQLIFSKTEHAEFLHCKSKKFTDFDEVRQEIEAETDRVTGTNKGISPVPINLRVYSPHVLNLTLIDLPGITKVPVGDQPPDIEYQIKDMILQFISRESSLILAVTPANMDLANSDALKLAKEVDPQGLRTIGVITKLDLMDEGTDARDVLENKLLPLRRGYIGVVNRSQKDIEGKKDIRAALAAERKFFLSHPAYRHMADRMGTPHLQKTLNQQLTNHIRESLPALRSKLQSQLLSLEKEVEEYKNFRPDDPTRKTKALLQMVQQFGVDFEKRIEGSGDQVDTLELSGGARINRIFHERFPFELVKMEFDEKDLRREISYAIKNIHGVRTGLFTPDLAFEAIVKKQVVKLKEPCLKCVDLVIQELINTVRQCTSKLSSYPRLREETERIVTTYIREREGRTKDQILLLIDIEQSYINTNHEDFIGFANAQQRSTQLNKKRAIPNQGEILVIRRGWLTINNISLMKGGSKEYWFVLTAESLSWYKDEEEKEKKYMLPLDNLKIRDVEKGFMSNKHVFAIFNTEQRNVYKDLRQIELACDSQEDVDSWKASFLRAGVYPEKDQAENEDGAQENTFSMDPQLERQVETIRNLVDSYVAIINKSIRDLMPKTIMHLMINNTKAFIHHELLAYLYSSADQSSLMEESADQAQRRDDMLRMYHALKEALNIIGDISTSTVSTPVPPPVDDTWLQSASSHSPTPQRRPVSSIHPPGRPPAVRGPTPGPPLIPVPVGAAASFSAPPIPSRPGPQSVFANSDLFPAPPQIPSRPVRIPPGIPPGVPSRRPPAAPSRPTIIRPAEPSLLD
Details: not given
Regarding “SIVmac239 Nef, wild type (natural protein)”, the Dyn2 binding (Nef/dynamin 2 band intensity in IP) was determined as 1.1.

The next assay deals with Rhesus macaque tetherin (BST-2), allele rBST-2.1 (rhesus macaque). Briefly: co-IP; 293T co-transfected with Nef and tetherin constructs; lysates immunoprecipitated with anti-tetherin mAb 3H4 and protein A beads, blots for Nef and tetherin; band densities by ImageJ.
Details: not given
For the molecule “SIVmac239 Nef G2A (myristoylation site mutant) (natural protein)”, the BST2 binding (Nef/tetherin band intensity in IP) turned out to be 0.16.

“SIVmac239 Nef with pair-wise alanine substitutions at positions 5–6 (natural protein)” showed a BST2 binding (Nef/tetherin band intensity in IP) of 0.18.

“SIVmac239 Nef with pair-wise alanine substitutions at positions 60–61 (natural protein)” gave a BST2 binding (Nef/tetherin band intensity in IP) of 0.7.

The molecule “SIVmac239 Nef with pair-wise alanine substitutions at positions 64–65 (natural protein)” gave a BST2 binding (Nef/tetherin band intensity in IP) of 0.54.

“SIVmac239 Nef with pair-wise alanine substitutions at positions 66–67 (natural protein)” came in with a BST2 binding (Nef/tetherin band intensity in IP) of 0.18.

Turning to “SIVmac239 Nef with pair-wise alanine substitutions at positions 68–69 (natural protein)”, the BST2 binding (Nef/tetherin band intensity in IP) was 0.14.

“SIVmac239 Nef with pair-wise alanine substitutions at positions 70–71 (natural protein)” displayed a BST2 binding (Nef/tetherin band intensity in IP) of 0.28.

In the case of “SIVmac239 Nef with pair-wise alanine substitutions at positions 74–75 (natural protein)”, the BST2 binding (Nef/tetherin band intensity in IP) was determined as 0.71.

With “SIVmac239 Nef with pair-wise alanine substitutions at positions 82–83 (natural protein)”, the BST2 binding (Nef/tetherin band intensity in IP) amounted to 1.38.

In the case of “SIVmac239 Nef with pair-wise alanine substitutions at positions 86–87 (natural protein)”, the BST2 binding (Nef/tetherin band intensity in IP) came out at 0.47.

Take “SIVmac239 Nef with pair-wise alanine substitutions at positions 88–89 (natural protein)”: the BST2 binding (Nef/tetherin band intensity in IP) was 0.93.

“SIVmac239 Nef with pair-wise alanine substitutions at positions 106–107 (natural protein)” gave a BST2 binding (Nef/tetherin band intensity in IP) of 0.82.

Molecule “SIVmac239 Nef with pair-wise alanine substitutions at positions 108–109 (natural protein)” came in with a BST2 binding (Nef/tetherin band intensity in IP) of 1.87.

Take “SIVmac239 Nef with pair-wise alanine substitutions at positions 110–111 (natural protein)”: the BST2 binding (Nef/tetherin band intensity in IP) turned out to be 1.29.

In turn, “SIVmac239 Nef with pair-wise alanine substitutions at positions 112–113 (natural protein)” showed a BST2 binding (Nef/tetherin band intensity in IP) of 0.35.

For the molecule “SIVmac239 Nef with pair-wise alanine substitutions at positions 116–117 (natural protein)”, the BST2 binding (Nef/tetherin band intensity in IP) was determined as 0.16.

Turning to “SIVmac239 Nef with pair-wise alanine substitutions at positions 128–129 (natural protein)”, the BST2 binding (Nef/tetherin band intensity in IP) is 1.11.

Take “SIVmac239 Nef with pair-wise alanine substitutions at positions 130–131 (natural protein)”: the BST2 binding (Nef/tetherin band intensity in IP) amounted to 2.4.

Molecule “SIVmac239 Nef with pair-wise alanine substitutions at positions 132–133 (natural protein)” came in with a BST2 binding (Nef/tetherin band intensity in IP) of 0.79.

With “SIVmac239 Nef with pair-wise alanine substitutions at positions 134–135 (natural protein)”, the BST2 binding (Nef/tetherin band intensity in IP) came to 2.58.

“SIVmac239 Nef with pair-wise alanine substitutions at positions 138–139 (natural protein)” gave a BST2 binding (Nef/tetherin band intensity in IP) of 0.84.

Consider “SIVmac239 Nef with pair-wise alanine substitutions at positions 140–141 (natural protein)”, for which the BST2 binding (Nef/tetherin band intensity in IP) came out at 1.38.

Consider “SIVmac239 Nef with pair-wise alanine substitutions at positions 142–143 (natural protein)”, for which the BST2 binding (Nef/tetherin band intensity in IP) worked out at 5.1.

Turning to “SIVmac239 Nef with pair-wise alanine substitutions at positions 146–147 (natural protein)”, the BST2 binding (Nef/tetherin band intensity in IP) was determined as 1.56.

In turn, “SIVmac239 Nef with pair-wise alanine substitutions at positions 152–153 (natural protein)” displayed a BST2 binding (Nef/tetherin band intensity in IP) of 1.68.

Regarding “SIVmac239 Nef with pair-wise alanine substitutions at positions 156–157 (natural protein)”, the BST2 binding (Nef/tetherin band intensity in IP) was determined as 1.46.

On to “SIVmac239 Nef with pair-wise alanine substitutions at positions 158–159 (natural protein)”, for which the BST2 binding (Nef/tetherin band intensity in IP) is 0.76.

Consider “SIVmac239 Nef with pair-wise alanine substitutions at positions 160–161 (natural protein)”, for which the BST2 binding (Nef/tetherin band intensity in IP) was determined as 1.64.

Molecule “SIVmac239 Nef with pair-wise alanine substitutions at positions 164–165 (natural protein)” yielded a BST2 binding (Nef/tetherin band intensity in IP) of 1.34.

Take “SIVmac239 Nef with pair-wise alanine substitutions at positions 166–167 (natural protein)”: the BST2 binding (Nef/tetherin band intensity in IP) was 1.4.

The molecule “SIVmac239 Nef with pair-wise alanine substitutions at positions 168–169 (natural protein)” returned a BST2 binding (Nef/tetherin band intensity in IP) of 2.1.

Turning to “SIVmac239 Nef with pair-wise alanine substitutions at positions 170–171 (natural protein)”, the BST2 binding (Nef/tetherin band intensity in IP) was 2.61.

As to “SIVmac239 Nef with pair-wise alanine substitutions at positions 172–173 (natural protein)”, the BST2 binding (Nef/tetherin band intensity in IP) was 1.34.

Molecule “SIVmac239 Nef with pair-wise alanine substitutions at positions 174–175 (natural protein)” yielded a BST2 binding (Nef/tetherin band intensity in IP) of 0.52.

“SIVmac239 Nef with pair-wise alanine substitutions at positions 176–177 (natural protein)” displayed a BST2 binding (Nef/tetherin band intensity in IP) of 3.17.

Turning to “SIVmac239 Nef with pair-wise alanine substitutions at positions 181–182 (natural protein)”, the BST2 binding (Nef/tetherin band intensity in IP) was 0.23.

Molecule “SIVmac239 Nef with pair-wise alanine substitutions at positions 193–194 (natural protein)” had a BST2 binding (Nef/tetherin band intensity in IP) of 0.22.

In the case of “SIVmac239 Nef with pair-wise alanine substitutions at positions 195–196 (natural protein)”, the BST2 binding (Nef/tetherin band intensity in IP) is 0.31.

Regarding “SIVmac239 Nef with pair-wise alanine substitutions at positions 199–200 (natural protein)”, the BST2 binding (Nef/tetherin band intensity in IP) was 0.43.

“SIVmac239 Nef with pair-wise alanine substitutions at positions 203–204 (natural protein)” registered a BST2 binding (Nef/tetherin band intensity in IP) of 0.74.

On to “SIVmac239 Nef with pair-wise alanine substitutions at positions 205–206 (natural protein)”, for which the BST2 binding (Nef/tetherin band intensity in IP) amounted to 0.94.

In turn, “SIVmac239 Nef with pair-wise alanine substitutions at positions 209–210 (natural protein)” returned a BST2 binding (Nef/tetherin band intensity in IP) of 1.4.

As to “SIVmac239 Nef, wild type (natural protein)”, the BST2 binding (Nef/tetherin band intensity in IP) turned out to be 1.

The target in another assay is Peptide of the cytoplasmic domain of rhesus macaque tetherin, residues 1–26, biotinylated (rhesus macaque). Description: SPR; BIAcore 3000, 25°C, PBS with 5 mM DTT; biotinylated tetherin peptides captured (3,000 RU) on neutravidin-coated CM5 chip, Nef proteins flowed at 5 µl/min; equilibrium analysis, apparent Kd.
Details: not given
(In general: SPR reads the build-up and loss of mass on a sensor chip optically.)
Regarding “Recombinant SIVmac239 Nef core domain, residues 96–237 (domain or fragment)”, the Kd came to 401 µM.
